Paper PMC6561935, “Hsp90 middle domain phosphorylation initiates a complex conformational program to recruit the ATPase-stimulating cochaperone Aha1” (Nature Communications, 2019)
Where “and” joins values, the source holds several entries; their conditions need not be identical. Equal values may be shown once.

B1: purified human Hsp90α-Y313E (natural protein)
chain: not shown
notes: Hsp90α (heat shock protein 90 alpha), human; 2H/13C Ile-labelled for NMR; also called Hsp90-Y313E; Y313E-Hsp90; source: purified
B2: Aha1-C (C-terminal domain of human Aha1) (domain or fragment, UniProt O95433 201-338, looked up)
chain: GVKIPTCKITLKETFLTSPEELYRVFTTQELVQAFTHAPATLEADRGGKFHMVDGNVSGEFTDLVPEKHIVMKWRFKSWPEGHFATITLTFIDKNGETELCMEGRGIPAPEEERTRQGWQRYYFEGIKQTFGYGARLF
notes: Aha1, human, C-terminal domain, amino acids 201-338; source: E. coli, purified
B3: purified Aha1-C (domain or fragment, human, UniProt O95433 201-338, looked up)
chain: B2 chain
notes: Aha1, human, C-terminal domain, amino acid 201-338; perdeuterated for NMR; source: purified
B4: human Aha1 C-terminal domain (domain or fragment, UniProt O95433 201-338, looked up)
chain: B2 chain
notes: Aha1, human, C-terminal domain (Aha1-C, amino acid 201-338); the ITC methods speak only of 'Aha1 constructs'; source: purified
B5: Aha1-N (N-terminal domain of human Aha1) (domain or fragment, UniProt O95433 1-162, looked up)
chain: MAKWGEGDPRWIVEERADATNVNNWHWTERDASNWSTDKLKTLFLAVQVQNEEGKCEVTEVSKLDGEASINNRKGKLIFFYEWSVKLNWTGTSKSGVQYKGHVEIPNLSDENSVDEVEISVSLAKDEPDTNLVALMKEEGVKLLREAMGIYISTLKTEFTQG
notes: Aha1, human, N-terminal domain, amino acids 1-162; source: E. coli, purified
B6: human Aha1 N-terminal domain (domain or fragment, UniProt O95433 1-162, looked up)
chain: B5 chain
notes: Aha1, human, N-terminal domain (Aha1-N, amino acid 1-162); the ITC methods speak only of 'Aha1 constructs'; source: purified

Columns and labels:
[1] = biological target: the molecule itself; assay: cross-linking; purified Hsp90 (with or without 10 mM AMPPNP, 10 min on ice) mixed with equimolar Aha1-His, 30 min on ice; 1 mM BDP-NHP (lysine-lysine), 30 min at room temperature; 25 mM HEPES pH 7.3, 100 mM NaCl; LC-MS (ReACT, PRM)
[2] = biological target: T1, Human wild-type Hsp90 (Hsp90α) (human, UniProt P07900 1-732); assay: ITC; with 2 mM AMPPNP in cell and syringe; Hsp90 (30 µM) in the cell, Aha1 constructs (380-450 µM) in the syringe; 20 mM Tris pH 7.5, 100 mM NaCl, 0.5 mM EDTA, 5 mM MgSO4, 1 mM TCEP, 36 °C; three technical repeats; conditions: both partners purified
T1 construct: Heat shock protein 90 alpha, human; also called Hsp90-wt; WT

[3] = biological target: T2, Hsp90-Y313E (human, UniProt P07900 1-732, Y313E); assay: as above; conditions: both partners purified
T2 construct: Heat shock protein 90 alpha, human, phosphomimetic mutant Y313E; also called Y313E-Hsp90; Hsp90α-Y313E; source: E. coli, purified

[4] = biological target: T2, Hsp90-Y313E; assay: ITC; without AMPPNP; Hsp90 (30 µM) in the cell, Aha1 constructs (380-450 µM) in the syringe; 20 mM Tris pH 7.5, 100 mM NaCl, 0.5 mM EDTA, 5 mM MgSO4, 1 mM TCEP, 36 °C; three technical repeats; conditions: both partners purified
[5] = biological target: B1; assay: ITC; Supplementary Table 3, with 2 mM AMPPNP in cell and syringe: Hsp90 30 μM in the cell, Aha1 constructs 380-450 μM in the syringe; 36 °C; 20 mM Tris pH 7.5, 100 mM NaCl, 0.5 mM EDTA, 5 mM MgSO4, 1 mM TCEP; conditions: both partners purified
[6] = biological target: T3, human Hsp90α Y313E (phosphomimetic mutant) (human, UniProt P07900 1-732, Y313E); assay: ITC; PEAQ-ITC, 36 °C; Hsp90 in the cell (30 μM), Aha1 constructs in the syringe (380-450 μM); 20 mM Tris pH 7.5, 100 mM NaCl, 0.5 mM EDTA, 5 mM MgSO4, 1 mM TCEP; no AMPPNP; three technical repeats; conditions: both partners purified
T3 construct: Hsp90α, human, with the phosphomimetic substitution Y313E (numbering based on human Hsp90α); also called Hsp90-Y313E; source: purified

[7] = biological target: T4, human Hsp90α, wild-type (human, UniProt P07900 1-732); assay: ITC; PEAQ-ITC, 36 °C; Hsp90 in the cell (30 μM), Aha1 constructs in the syringe (380-450 μM); 20 mM Tris pH 7.5, 100 mM NaCl, 0.5 mM EDTA, 5 mM MgSO4, 1 mM TCEP; 2 mM AMPPNP in cell and syringe; three technical repeats; conditions: both partners purified
T4 construct: Hsp90α (heat shock protein 90 alpha), human; also called WT; wild-type Hsp90; source: purified

[8] = biological target: T3, human Hsp90α Y313E (phosphomimetic …); assay: as above; conditions: both partners purified
[9] = biological target: T1, Human wild-type Hsp90 (Hsp90α); assay: ITC; without AMPPNP; Hsp90 (30 µM) in the cell, Aha1 constructs (380-450 µM) in the syringe; 20 mM Tris pH 7.5, 100 mM NaCl, 0.5 mM EDTA, 5 mM MgSO4, 1 mM TCEP, 36 °C; three technical repeats; conditions: both partners purified
[10] = biological target: T4, human Hsp90α, wild-type; assay: ITC; PEAQ-ITC, 36 °C; Hsp90 in the cell (30 μM), Aha1 constructs in the syringe (380-450 μM); 20 mM Tris pH 7.5, 100 mM NaCl, 0.5 mM EDTA, 5 mM MgSO4, 1 mM TCEP; no AMPPNP; three technical repeats; conditions: both partners purified

B1: binds [1].

With B2 the Kd [2] was 15.6 µM, the Kd [3] was 2.3 µM and the Kd [4] was 5.5 µM.

In the case of B3, the “fold reduction of Kd against wild-type Hsp90 (both with AMPPNP)” value [5] is reported as about 7 fold and the “fold reduction of Kd with AMPPNP against without AMPPNP” value [5] is reported as over 2 fold.

For B4, the Kd [6] was 7.71 µM and 4.59 µM and 4.04 µM and 5.45 µM, the Kd [7] was 17 µM and 13.3 µM and 16.4 µM and 15.6 µM and the Kd [8] was 2.02 µM and 2.27 µM and 2.62 µM and 2.3 µM.

Binder B5 has a Kd [2] of 4.9 µM, a Kd [3] of 8.9 µM and a Kd [9] of 6.8 µM. For the same binder, the Kd [4] was 11.2 µM.

For B6, the Kd [10] was 7.2 µM and 6.1 µM and 7.22 µM and 6.84 µM, the Kd [6] was 11.6 µM and 12.2 µM and 9.96 µM and 11.2 µM and the Kd [7] was 5.69 µM and 4.69 µM and 4.25 µM and 4.88 µM. The Kd [8] was 7.97 µM and 8.96 µM and 9.66 µM and 8.86 µM.
